Reference: PMC7058303

Molecular target: Sus1 from S. cerevisiae (recombinant) (Saccharomyces cerevisiae) (UniProt Q6WNK7)
Experiment: SEC; Superdex 75 10/300 GL, calibrated with molecular weight markers; non-dissociating conditions; elution volume 12 ml

stoichiometry N: 3
Substance: Sus1 from S. cerevisiae (recombinant) (from UniProt Q6WNK7 1-96) (natural protein)
